6 molecules from paper PMC10641528, “A conserved, noncanonical insert in FIS1 mediates TBC1D15 and DRP1 recruitment for mitochondrial fission” (The Journal of Biological Chemistry, 2023) can be followed below.

Changes are numbered by the printed parent chain. Names may count otherwise.

First the molecules themselves.
B1: FIS1 ΔSKY variant (SKY insert deleted) (natural protein, human)
chain: MEAVLNELVSVEDLLKFEKKFQSEKAAGSVSKSTQFEYAWCLVRNDDIRKGIVLLEELLPKGSKEEQRDYVFYLAVGNYRLKEYEKALKYVRGLLQTEPQNNQAKELERLIDKAMKKDGLVGMAIVGGMALGVAGLAGLIGL
notes: human FIS1 with S45, K46, Y47 deleted, expressed from pcDNA; source: HCT116, transfected, in lysate (PFA cross-linked cells)
B2: FIS1 ΔSKYD49G variant (SKY insert deleted, D49 replaced by Gly) (natural protein, human)
chain: B1 chain with D46G
notes: human FIS1 with S45, K46, Y47 deleted and D49 replaced by Gly (wildtype numbering), expressed from pcDNA; source: HCT116, transfected, in lysate (PFA cross-linked cells)
B3: Mitochondrial fission protein 1 (FIS1), wildtype, ectopically expressed from pcDNA-FIS1 WT (natural protein, human)
chain: MEAVLNELVSVEDLLKFEKKFQSEKAAGSVSKSTQFEYAWCLVRSKYNDDIRKGIVLLEELLPKGSKEEQRDYVFYLAVGNYRLKEYEKALKYVRGLLQTEPQNNQAKELERLIDKAMKKDGLVGMAIVGGMALGVAGLAGLIGL
notes: human mitochondrial fission protein 1 (FIS1), wildtype, expressed from pcDNA; No tag is mentioned; detected with an anti-FIS1 antibody; also called WT FIS1; source: HCT116, transfected, in lysate (PFA cross-linked cells)
B4: FIS1 AAA variant (SKY insert substituted with three alanines) (natural protein, human)
chain: B3 chain with S45A, K46A, Y47A
notes: human FIS1 with S45, K46, Y47 replaced by three Ala, expressed from pcDNA; also called AAA FIS1 variant; source: HCT116, transfected, in lysate (PFA cross-linked cells)
B5: FIS1 D49G variant (natural protein, human)
chain: B3 chain with D49G
notes: human FIS1 that keeps the SKY insert, with D49 replaced by Gly, expressed from pcDNA; source: HCT116, transfected, in lysate (PFA cross-linked cells)

T1 sequence (O00429 whole entry): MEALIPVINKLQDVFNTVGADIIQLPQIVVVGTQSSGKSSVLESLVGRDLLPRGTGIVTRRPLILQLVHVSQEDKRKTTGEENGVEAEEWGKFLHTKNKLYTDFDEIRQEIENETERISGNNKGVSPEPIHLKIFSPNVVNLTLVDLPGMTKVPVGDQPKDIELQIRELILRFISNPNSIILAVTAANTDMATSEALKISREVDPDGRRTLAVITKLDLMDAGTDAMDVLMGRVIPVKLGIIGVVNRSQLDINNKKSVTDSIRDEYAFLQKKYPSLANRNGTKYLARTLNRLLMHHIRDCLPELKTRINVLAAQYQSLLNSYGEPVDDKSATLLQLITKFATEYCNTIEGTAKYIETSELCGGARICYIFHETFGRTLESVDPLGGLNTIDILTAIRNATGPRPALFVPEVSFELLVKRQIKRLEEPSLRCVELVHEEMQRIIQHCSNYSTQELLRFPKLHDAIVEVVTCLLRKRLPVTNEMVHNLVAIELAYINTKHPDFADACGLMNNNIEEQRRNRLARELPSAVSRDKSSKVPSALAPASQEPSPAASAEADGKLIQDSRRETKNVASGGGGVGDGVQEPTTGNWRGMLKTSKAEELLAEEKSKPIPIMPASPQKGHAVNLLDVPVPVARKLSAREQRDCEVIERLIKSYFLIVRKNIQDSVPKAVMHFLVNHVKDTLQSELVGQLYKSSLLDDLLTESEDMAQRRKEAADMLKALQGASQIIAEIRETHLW

For one assay, the target named is DRP1, endogenous (dynamin family GTPase) (human (endogenous in HCT116)) (UniProt O00429). In words: co-IP; endogenous DRP1 immunoprecipitated (mouse monoclonal sc-271583 on protein A/G beads) from lysates of HCT116 cells transfected with pcDNA or pcDNA-FIS1 variants and cross-linked with 0.25% PFA; FIS1 blotted; scored as ratio of immunoprecipitated to input FIS1; lysis buffer 10 mM Tris/Cl pH 7.5, 150 mM NaCl, 0.5 mM EDTA, 0.5% NP-40 substitute.
DRP1, endogenous (dynamin family GTPase) (human (endogenous in HCT116)), sequence (O00429 whole entry): as above
Conditions: not given
“FIS1 5LA variant (five conserved TPR Leu residues replaced with Ala) (from UniProt Q9Y3D6 1-145) (natural protein)”: the ratio of immunoprecipitated to input FIS1 worked out at 3.9.

A further assay addresses T1, DRP1, endogenous (dynamin family GTPase) (human (endogenous in HCT116), UniProt O00429 1-736).
T1 construct: DRP1 endogenous in HCT116 cells; Immunoprecipitated with mouse monoclonal DRP1 antibody sc-271583; source: endogenous, HCT116 lysate (PFA cross-linked cells)
The assay is described as above. The conditions noted are these: partners not purified.
On to B1, for which the “ratio of immunoprecipitated to input FIS1” value (from here on “ratio of immunoprecipitated”) worked out at 1.3 ± 0.9. As for B2, the “ratio of immunoprecipitated” value came out at 0.9 ± 0.2.

B3: the “ratio of immunoprecipitated” value came out at 0.7 ± 0.1. The same measure, in the same setting: as for B4, the figure is 0.9 ± 0.1; as for B5, 0.7 ± 0.3.
